We go through 1 substance from publication doi:10.1101/2025.04.28.650977.

Common to all, as to test: SPR
(In general: SPR reads the build-up and loss of mass on a sensor chip optically.)

The target in experiment [1] is recombinant SOCS2 in complex with Elongins BC (UniProt O14508).
Experiment [2] deals with recombinant SOCS1 in complex with Elongins BC (UniProt O15524).
The target of experiment [3] is recombinant CIS in complex with Elongins BC (GST removed) (human) (UniProt Q9NSE2).

By IC50 is commonly meant the concentration needed to halve the response being measured. Turning to “ARAP2-pY415 peptide (competitor phosphopeptide)”, the IC50 in experiment [1] was 1.66 µM; in experiment [2], 0.05 µM; in experiment [3], 0.2 µM.
